From patent US10597674B2, “HPPD variants and methods of use” (BASF Agricultural Solutions Seed, US LLC, priority 2015, dated 2020)
Residue numbers refer to the chain shown, from its start. In names and notes the source's numbering stands.

B1: SEQ ID NO: 2: prior art mutant HPPD polypeptide (WO2014/043435): E335P G336W K339A A340Q (protein)
chain: MADLYENPMGLMGFEFIEFASPTPGTLEPIFEIMGFTKVATHRSKNVHLYRQGEINLILNNEPNSIASYFAAEHGPSVCGMAFRVKDSQKAYNRALELGAQPIHIDTGPMELNLPAIKGIGGAPLYLIDRFGEGSSIYDIDFVYLEGVERNPVGAGLKVIDHLTHNVYRGRMVYWANFYEKLFNFREARYFDIKGEYTGLTSKAMSAPDGMIRIPLNEESSKGAGQIEEFLMQFNGEGIQHVAFLTDDLVKTWDALKKIGMRFMTAPPDTYYEMLEGRLPDHGEPVDQLQARGILLDGSSVEGDKRLLLQIFSETLMGPVFFEFIQRKGDDGFGPWNFAQLFESIERDQVRRGVLTAD
modifications: mutant HPPD polypeptide
notes: prior art mutant HPPD polypeptide (WO2014/043435): E335P G336W K339A A340Q
B2: SEQ ID NO: 32: mutant HPPD polypeptide: P268R T270E E335P G336H N337S A340V I345V (protein)
chain: B1 chain with P268R, T270E, W336H, N337S, A339K, Q340V, I345V
modifications: mutant HPPD polypeptide
notes: mutant HPPD polypeptide: P268R T270E E335P G336H N337S A340V I345V
B3: SEQ ID NO: 31: mutant HPPD polypeptide: P268G T270E E335P G336H N337S A340V I345V (protein)
chain: B1 chain with P268G, T270E, W336H, N337S, A339K, Q340V, I345V
modifications: mutant HPPD polypeptide
notes: mutant HPPD polypeptide: P268G T270E E335P G336H N337S A340V I345V
B4: SEQ ID NO: 96: mutant HPPD polypeptide: R213K P268G T270E E335P G336H N337S A340V I345V (protein)
chain: B1 chain with R213K, P268G, T270E, W336H, N337S, A339K, Q340V, I345V
modifications: mutant HPPD polypeptide
notes: mutant HPPD polypeptide: R213K P268G T270E E335P G336H N337S A340V I345V

Assays:
[1] = tested on: transgenic soybean T0 events; assay: Additional greenhouse trials of T0 soybean events, leaf damage score 0-100 as percentiles; assay type: in vivo; conditions: Cmpd. 1 300 g AI/ha, five days
Summary of the method: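 Independent T0 events (21 to 94 per construct, single cassette insertion) expressing mutant HPPD were sprayed with HPPD inhibitor herbicide in the greenhouse. Leaf damage scored 5 days after application from 0 (no damage) to 100 (complete bleaching). Scores reported as percentile distributions (25th, median, 75th) per construct.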

[2] = tested on: E. coli cells expressing an HPPD polypeptide; assay: Brown color bioassay in liquid culture, residual brown color formation (BCF), OD440 after 96 hours; assay type: cell-based; conditions: Cmpd. 1 1000 μM, 96 hours
Summary of the method: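 E. coli expressing HPPD variants were grown at 30 degrees Celsius from OD600 0.3-0.5 in LB with 5 mM HPP, with or without herbicide (e.g. Cmpd. 1, 1000 μM). After 96 hours, supernatant OD440 was measured; residual brown colour formation compares pigment with and without inhibitor.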

[3] = tested on: E. coli cells expressing an HPPD polypeptide; assay: Brown Color Assay on solid LB-agar, visual score of brown pigment; assay type: cell-based; design: key to brown pigment formation: +++: a dark brown coloring as seen for E. coli cells expressing one of the respective mutant HPPD polypeptide without inhibitor; ++: medium brown pigmentation; +: light brown pigmentation; 0: no brown pigmentation development was detected on the LB agar plates
Experimental: Mutant HPPD polypeptides were analyzed using a brown color assay (WO2014/043435). Bacterial cells expressing the mutant HPPD polypeptide according to the invention were assayed in 96 well format for HPPD inhibitor tolerance by spotting on solid media containing LB-agar, selection agent for the expression vector pSE420(RI)NX (WO2014/043435), 5 mM tyrosine (Sigma-Aldrich, St. Louis, USA), 42 mM succinate (Sigma-Aldrich, St. Louis, USA) and six different concentrations of the HPPD inhibitor herbicide Cmpd. 1 (0-500 μM). In the brown color assay, an overnight culture of the E. coli cells expressing one of the respective mutant HPPD polypeptides were diluted to an OD600 of 1 and 10 μl extract was spotted in triplicates on plates containing 0, 25, 50, 100, 250, or 500 μM of Cmpd. 1. Plates were covered with airpore tape and incubated at 30 degrees C. After 24 hours, the cells were kept in darkness at room temperature and after 7 days the brown pigment formation was scored visually. In the presence of an HPPD inhibitor herbicide, this pigment formation is inhibited and the color of the agar plate will not alter, unless an HPPD inhibitor herbicide tolerant HPPD polypeptide is expressed and active. […] The “++” and “+” scores a medium and light brown pigmentation, respectively, and the “0” means that no brown pigmentation development was detected on the LB agar plates.

[4] = tested on: transgenic T1 soybean events; assay: Field trials of T1 soybean events, leaf damage eight days after application; assay type: in vivo
Experimental: Soybean plants expressing an HPPD inhibitor tolerant polypeptide of the present invention alone, or along with a gene conferring tolerance to glyphosate and/or a gene conferring tolerance to glufosinate or having a “plant expression cassette”, which includes only an HPPD inhibitor tolerant polypeptide of the present invention, were tested for tolerance to different HPPD inhibitor herbicide chemical classes. The transgenic plants were routinely analyzed for the expression and presence of the transgenes using the ELISA protein detection method (see detailed description under item D and H). Only plants recovering in the selection media and having a detectable HPPD transgene protein expression were regenerated, transferred to the greenhouse and used at V2-V4 growth stage for the HPPD inhibitor herbicide tolerance analysis of the T0 soybean events in the greenhouse (Example 6). The chemical formulation with HPPD inhibitor herbicides was supplemented with ammonium sulfate and methyl ester rapeseed oil. Herbicide tolerance evaluation was taken 5-21 days after spraying. The best performing independent T0 soybean events were selfed to produce T1 soybean seeds. In the field trails, the advanced T1 soybean seeds were planted and treated with either 210 g/ha of isoxaflutole or 150 g/ha of Cmpd.
In Table 10, the frequency of the soybean events showing a good tolerance, i.e. equal or less than 15% damage of the total leaf area are summarized

[5] = tested on: transgenic soybean T0 events; assay: Greenhouse spray test of T0 soybean events, herbicide tolerance rating 0-3; assay type: in vivo; conditions: Cmpd. 1 300 g AI/ha; for number of events with Herbicide Tolerance Rating 0: five days after application; for number of events with Herbicide Tolerance Rating 1: rating 1 = slight tolerance, 50-95% leaf damage; for number of events with Herbicide Tolerance Rating 2: rating 2 = moderate tolerance, 10-49% of leaf area; for number of events with Herbicide Tolerance Rating 3: rating 3 = good tolerance, less than 10% of leaf area
Experimental: Tolerant green shoots were transferred to rooting media or grafted. Rooted plantlets were transferred to the greenhouse after an acclimation period. Plants containing the transgene were then sprayed with HPPD inhibitor herbicides, as for example with mesotrione at a rate of 300-600 g AI/ha, or with Cmpd. […] Five to ten days after the application, the symptoms due to the application of the herbicide were evaluated and compared to the symptoms observed on wild-type plants under the same conditions.
For example, T0 soybean plants having a “plant expression cassette”, which includes an HPPD inhibitor tolerant HPPD polypeptide of the present invention, were tested towards the tolerance of Cmpd. 1.
Prior greenhouse trials with the transgenic plants, soybean transformants were routinely analyzed for the expression and presence of the transgenes using the ELISA protein detection method (see detailed description under item D and H). Only plants recovering in the selection media and having a detectable HPPD transgene protein expression were used for the herbicide tolerance analysis. A DeVries Tracker Sprayer was calibrated prior to each spraying. The chemical formulation used for Cmpd. 1 was supplemented with ammonium sulfate and methylated rape seed oil. Spray tests were conducted with a concentration, which equals to 300 grams AI per hectare (300 g AI/ha). Tolerance was evaluated 5 days after spraying. […] A rating of “3” was assigned to plants showing good tolerance, i.e. less than 10% of the leaf area from the top three trifoliate leaves showing chlorosis or only very slight bleaching.

[6] = 25 μM Cmpd. 1, scored after 7 days
[7] = 50 μM Cmpd. 1, scored after 7 days
[8] = 100 μM Cmpd. 1, scored after 7 days
[9] = 250 μM Cmpd. 1, scored after 7 days
[10] = 500 μM Cmpd. 1, scored after 7 days
[11] = 150 g/ha Cmpd. 1, stage V2-V4, eight days after application
[12] = 210 g/ha isoxaflutole, stage V2-V4, eight days after application

Molecule | brown pigment formation [3, 6] | brown pigment formation [3, 7] | brown pigment formation [3, 8] | brown pigment formation [3, 9] | brown pigment formation [3, 10] | Frequency in the population (events with ≤15% leaf damage) [4, 11] | Independent events with ≤15% leaf damage after spray [4, 11] | Frequency in the population (events with ≤15% leaf damage) [4, 12] | Independent events with ≤15% leaf damage after spray [4, 12] | number of events with Herbicide Tolerance Rating 0 [5] | number of events with Herbicide Tolerance Rating 1 ([5]; five days) | number of events with Herbicide Tolerance Rating 2 ([5]; five days) | number of events with Herbicide Tolerance Rating 3 ([5]; five days) | further results
B1 | ++ | ++ | ++ | + | 0 | 41% | 16 | 26% | 10 | 5 | 10 | 26 | 49 | leaf damage score, Interquartile range ([1]; 75th minus 25th percentile): 30.0; leaf damage score, 25th percentile ([1]; scale 0 (no damage) to 100 (complete bleaching)): 15.0; leaf damage score, 75th percentile ([1]; scale 0-100): 45.0; leaf damage score, 90th percentile ([1]; scale 0-100): 87.0; leaf damage score, Median ([1]; scale 0-100): 20.0; brown pigmentation in the presence of the HPPD inhibitor, in words [2]: did not produce a substantial brown pigmentation; brown pigmentation, in words ([3]; 250 μM Cmpd. 1): only a slight brown pigmentation; brown pigmentation, in words ([3]; 500 μM Cmpd. 1): lost their brown pigmentation; Percentage events rated “2 & 3” ([5]; five days, less than 50% leaf damage): 83.3%
B2 | +++ | +++ | +++ | ++ | + | 42% | 10 | 50% | 12 | 1 | 0 | 10 | 28 | proportion of T0 soybean events with less than 10% leaf damage ([5]; five days): ~72%
B3 | +++ | +++ | +++ | ++ | + | 86% | 12 | 93% | 13 | 4 | 1 | 21 | 30 | –
B4 | +++ | ++ | ++ | ++ | + | 70% | 14 | 55% | 11 | 0 | 5 | 43 | 34 | –
